{"source": "patent US20230158165", "key": {"[1]": {"system": "PEG2 construct peptide (KKKK-Peg2-Val-Cit-Tregitope-Nle), before addition of MPA and HSA"}, "[2]": {"system": "PEG12 construct peptide (Peg12-Val-Cit-Tregitope-Nle), before addition of MPA and HSA"}}}
{"substance": "Recombinant human Cathepsin B (catalog 953-CY of R&D Systems)", "values": [{"measurement": "cleavage of the Val-Cit site, evaluated by mass spec", "setting": "[1]", "result": "the PEG2 peptide did not have successful cleavage, and further modification of the Cathepsin B protocol did not produce successful cleavage"}, {"measurement": "cleavage of the Val-Cit site, evaluated by mass spec", "setting": "[2]", "result": "For the PEG12 product, successful cleavage is demonstrated"}]}
